What was measured:
[1] = molecular target: F-actin (UniProt P68133); conditions: cited from earlier work
[2] = molecular target: F-actin (filamentous actin) (human (endogenous in HEK293)) (UniProt P60709); test: single-molecule localisation microscopy (direct-LIVE-PAINT, TIRF); live HEK293 cells transiently transfected with LifeAct-14-EGFP plasmid (4 ng or 20 ng DNA), imaged 24 h later at 37°C; 488 nm excitation, 50 ms exposure, 2000 frames; transient binding events read as single-molecule localisations

| localizations/s (4 ng DNA transfected) (localizations/s) [2] | localizations/s (20 ng DNA transfected) (localizations/s) [2] | Substance | Kd [1] |
| --- | --- | --- | --- |
| – | – | LifeAct-14 1-14 (from UniProt Q08641) | 1200 nM |
| 540 | 1860 | LifeAct-14-EGFP (from UniProt Q08641 1-14) (peptide) | – |

Reference: PMC9878614
